In patent US20170030918A1 (MOR NUCO ENTERPRISES, published 2017):

Columns and labels:
[1] = target: T1, serum albumin (human, UniProt P02768 25-609); test: 2-D gel electrophoresis / western blot of patient sera
T1 construct: Protein from patient sera on a denaturing 2-D blot; also called Ab
Protocol: (§1) Serum was prepared from 5 ml of blood collected by venipuncture (with tourniquet) in standard B & D 13×100 (7 ml) vacutainer clot tubes (or equivalent) with or without hemoguard closure. After approximately 30 min at room temperature to allow for clotting, the clot was pelleted by centrifugation for 5 to 10 min at 2,500 to 3,000 rpm. Clot-free serum was decanted into a clean tube, labeled and analyzed fresh or stored frozen.
(§2) For western blot analysis, 30 μl of sera was added to 120 μl of Rehydration Buffer (7 M urea, 2 M thiourea, 2% (w/v) CHAPS [(3-[(3-cholamidopropyl)dimethylammonio]-1-propane-sulfonate), a nondenaturing zwitterionic detergent], 0.5% (w/v) ASB-14 (amidosulfobetaine-14, a zwitterionic detergent), 0.5% (v/v) ampholytes pH 3-10 (Bio-Rad), 0.5% (v/v) immobilized pH gradient (IPG) buffer pH 3-10 (Amersham-Pharmacia Biotech) and 65 mM dithiothreitol). The samples were quickly vortexed to mix sera with Rehydration Buffer. Four to six mg of protein were loaded for analysis. The samples were electrophoresed in the first dimension by using a commercial flatbed electrophoresis system (Ettan IPGphor 3, Amersham-Pharmacia Biotech) with IPG dry strips (Amersham). A linear pH range of 3 to 10 on 7 cm IPG strips was used. The IPG strips were rehydrated with the samples overnight at room temperature. […]

[2] = target: T2, serotransferrin (human, UniProt P02787 20-698); test: 2-D gel / western blot of patient sera
T2 construct: Protein from patient sera on a denaturing 2-D blot; also called Serrotransferrin
T2 sequence (P02787 20-698 limits assumed): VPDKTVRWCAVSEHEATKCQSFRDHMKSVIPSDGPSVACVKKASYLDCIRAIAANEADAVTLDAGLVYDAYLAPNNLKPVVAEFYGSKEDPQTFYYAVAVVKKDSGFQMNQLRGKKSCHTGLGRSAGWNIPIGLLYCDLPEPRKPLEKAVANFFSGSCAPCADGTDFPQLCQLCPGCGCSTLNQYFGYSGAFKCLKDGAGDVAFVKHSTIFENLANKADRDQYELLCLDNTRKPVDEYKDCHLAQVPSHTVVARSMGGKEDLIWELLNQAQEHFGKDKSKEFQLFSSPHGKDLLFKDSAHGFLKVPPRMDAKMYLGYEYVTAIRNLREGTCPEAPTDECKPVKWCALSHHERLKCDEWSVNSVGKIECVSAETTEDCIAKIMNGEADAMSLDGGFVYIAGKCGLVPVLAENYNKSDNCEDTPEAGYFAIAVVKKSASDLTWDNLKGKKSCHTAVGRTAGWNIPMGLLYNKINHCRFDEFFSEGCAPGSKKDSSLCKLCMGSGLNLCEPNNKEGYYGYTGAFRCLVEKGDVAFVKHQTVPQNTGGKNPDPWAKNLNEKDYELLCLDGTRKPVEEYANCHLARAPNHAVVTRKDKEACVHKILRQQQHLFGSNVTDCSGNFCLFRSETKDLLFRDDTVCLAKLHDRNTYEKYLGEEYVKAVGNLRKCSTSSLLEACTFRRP
Protocol: as §1, §2

T1 sequence (P02768 25-609 limits assumed): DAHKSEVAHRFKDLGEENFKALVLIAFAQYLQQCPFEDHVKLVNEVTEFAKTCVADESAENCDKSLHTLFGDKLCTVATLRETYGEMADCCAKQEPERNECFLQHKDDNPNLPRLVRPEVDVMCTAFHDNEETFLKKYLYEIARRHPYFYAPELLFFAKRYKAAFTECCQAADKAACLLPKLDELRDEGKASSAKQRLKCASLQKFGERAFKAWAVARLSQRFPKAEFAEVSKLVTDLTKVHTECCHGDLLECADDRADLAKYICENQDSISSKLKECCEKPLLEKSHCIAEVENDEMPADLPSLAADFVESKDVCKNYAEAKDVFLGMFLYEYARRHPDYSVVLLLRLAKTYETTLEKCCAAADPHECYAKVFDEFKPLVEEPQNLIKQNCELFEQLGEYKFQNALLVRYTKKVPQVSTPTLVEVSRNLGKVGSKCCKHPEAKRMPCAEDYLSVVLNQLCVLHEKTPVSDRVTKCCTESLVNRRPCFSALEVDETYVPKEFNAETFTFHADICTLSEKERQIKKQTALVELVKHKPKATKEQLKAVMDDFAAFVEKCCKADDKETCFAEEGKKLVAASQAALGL

B1: recombinant anti-ENOX2 single chain variable region antibody carrying an S-tag, ScFv(S) (scFv)
scFv: EVKLQESGTEVVKPGASVKLSCKASGYIFTSYDIDWVRQTPEQGLEWIGWIFPGEGSTEYNEKFKGRATLSVDKSSSTAYMELTRLTSEDSAVYFCARGDYYRRYFDLWGQGTTVTVSSGGGGSGGGGSGGGGSENVLTQSPAIMSASPGERVTMTCSASSSIRYIYWYQQKPGSSPRLLIYDTSNVAPGVPFRFSGSGSGTSYSLTINRMEAEDAATYYCQEWSGYPYTFGGGTKLELKAKETAAAKFERQHMDS
notes: Derived from the hybridoma that makes the ENOX2-specific monoclonal antibody; also called pan ENOX2 recombinant scFv antibody; recombinant anti-ECTO-NOX antibody (single chain variable region ScFv)
B1: no binding [1]; binds [2].
